Measurements published in the RNAGym collection of RNA variant scans (doi:10.7554/elife.80360).

B1: Hairpin Ribozyme (parent)
chain: GUCCUCUUUCACGUGCGCGUGAAAGAGAGAAGUGAACCAGAGAAACACACGUUGUGGUAUAUUACCUGGUA

Variants of: B1
Test: self-cleavage, relative activity (ratio to wild type); higher = more cleavage; co-transcriptional

Variant	self-cleavage
GUCCUCUUUCACGUGCACGAGAAAGAGAGAAGUGAACCAGAGAAACACACGUUGUGGUAUAUUACCUGGUA [G17A U20A]	0.759
GUCCUCUUUCACGUGCACGGGAAAGAGAGAAGUGAACCAGAGAAACACACGUUGUGGUAUAUUACCUGGUA [G17A U20G]	0.492
GUCCUCUUUCACGUGCCAGUGAAAGAGAGAAGUGAACCAGAGAAACACACGUUGUGGUAUAUUACCUGGUA [G17C C18A]	0.947
GUCCUCUUUCACGUGCCGGUGAAAGAGAGAAGUGAACCAGAGAAACACACGUUGUGGUAUAUUACCUGGUA [G17C C18G]	0.645
GUCCUCUUUCACGUGCCCGUGAAAGAGAGAAGUGAACCAGAGAAACACACGUUGUGCUAUAUUACCUGGUA [G17C G57C]	0.206
GUCCUCUUUCACGUGCAUGUGAAAGAGAGAAGUGAACCAGAGAAACACACGUUGUGGUAUAUUACCUGGUA [G17A C18U]	1.12
GUCCUCUUUCACGUGCCCGUGAAAGAGAGAAGUGAACCAGAGAAACACACGUUGUGGUAUAUUACAUGGUA [G17C C66A]	0.154
GUCCUCUUUCACGUGCCCGUGAAAGAGAGAAGUGAACCAGAGAAACACACGUUGUGGUAUAUUACGUGGUA [G17C C66G]	0.0719
GUCCUCUUUCACGUGCACGUCAAAGAGAGAAGUGAACCAGAGAAACACACGUUGUGGUAUAUUACCUGGUA [G17A G21C]	0.834
GUCCUCUUUCACGUGCCCGUGAAAGAGAGAAGUGAGCCAGAGAAACACACGUUGUGGUAUAUUACCUGGUA [G17C A36G]	0.48
GUCCUCUUUCACGUGCCCGUGAAAGAGAGAAGUGACCCAGAGAAACACACGUUGUGGUAUAUUACCUGGUA [G17C A36C]	0.532
GUCCUCUUUCACGUGCACGUGAAAGAGAGAAGUGAACCAGAGAAACACACGUUGUGGUCUAUUACCUGGUA [G17A A59C]	0.196
GUCCUCUUUCACGUGCACGUGAAAGAGAGAAGUGAACCAGAGAAACACACGUUGUGGUUUAUUACCUGGUA [G17A A59U]	0.116
GUCCUCUUUCACGUGCACGUGAAAGAGAGAAGUGAACCAGAGAAAAACACGUUGUGGUAUAUUACCUGGUA [G17A C46A]	0.191
GUCCUCUUUCACGUGCCCGUGAAAGAGAGAAGUGAACCAGAGAAACACACGUUGUGGUAUAUUACCUGAUA [G17C G69A]	0.404
GUCCUCUUUCACGUGCACGUGAAAGAGAGAAGUGAACCAGAGAAACACACCUUGUGGUAUAUUACCUGGUA [G17A G51C]	0.656
GUCCUCUUUCACGUGCCCGUGAAAGAGAGAAGUGAACCAGAGAAACACGCGUUGUGGUAUAUUACCUGGUA [G17C A49G]	0.409
GUCCUCUUUCACGUGCCCGUGAAAGAGAGAAGUGAACCAGAGAAACACACGUUCUGGUAUAUUACCUGGUA [G17C G54C]	0.387
GUCCUCUUUCACGUGCCCGUGAAAGAGAGAAGUGAACCAGAGAAACACACGUUAUGGUAUAUUACCUGGUA [G17C G54A]	0.36
GUCCUCUUUCACGUGCCCGUGAAAGAGAGAAGUGAACCAGAGAAACACACGUUGUGGUAUAUUACCUUGUA [G17C G68U]	0.181
GUCCUCUUUCACGUGCCCGUGAAAGAGAGAAGUGAACCAGAGAAACAGACGUUGUGGUAUAUUACCUGGUA [G17C C48G]	0.165
GUCCUCUUUCACGUGCACGUGAAAGAGAGAAGUGAACCAGAGAAACACACGUUGUGGUAUAUUACCUGGUC [G17A A71C]	1.37
GUCCUCUUUCACGUGCCCGUGCAAGAGAGAAGUGAACCAGAGAAACACACGUUGUGGUAUAUUACCUGGUA [G17C A22C]	0.75
GUCCUCUUUCACGUGCACGUGAAAGAGAGAAGUGAACCAGUGAAACACACGUUGUGGUAUAUUACCUGGUA [G17A A41U]	1.38
GUCCUCUUUCACGUGCCCGUGAAAGAGAGAAGUGAACCGGAGAAACACACGUUGUGGUAUAUUACCUGGUA [G17C A39G]	0.217
GUCCUCUUUCACGUGCCCGUGAAAGAGAGAAGUAAACCAGAGAAACACACGUUGUGGUAUAUUACCUGGUA [G17C G34A]	1.02

Variant	self-cleavage
GUCCUCUUUCACGUGCCCGUGAAAGAGAGAAGUCAACCAGAGAAACACACGUUGUGGUAUAUUACCUGGUA [G17C G34C]	1.16
GUCCUCUUUCACGUGCCCGUGAAAGAGAGAAGUUAACCAGAGAAACACACGUUGUGGUAUAUUACCUGGUA [G17C G34U]	1.42
GUCCUCUUUCACGUGCACGUGAAAGAGAGAAGUGAACGAGAGAAACACACGUUGUGGUAUAUUACCUGGUA [G17A C38G]	0.198
GUCCUCUUUCACGUGCACGUGAAAGAGAGAAGUGAACCAGAGAAACACAGGUUGUGGUAUAUUACCUGGUA [G17A C50G]	0.327
GUCCUCUUUCACGUGCCCGUGAAAGAGAGAAGUGAACCAGAGAUACACACGUUGUGGUAUAUUACCUGGUA [G17C A44U]	0.0541
GUCCUCUUUCACGUGCACGUGAAAGAGAGAAGUGAAGCAGAGAAACACACGUUGUGGUAUAUUACCUGGUA [G17A C37G]	0.332
GUCCUCUUUCACGUGCCCGUUAAAGAGAGAAGUGAACCAGAGAAACACACGUUGUGGUAUAUUACCUGGUA [G17C G21U]	0.53
GUCCUCUUUCACGUGCACGUGAAAGAGAGAAGUGAACCAGAGAAACACACGUUGUGGUAAAUUACCUGGUA [G17A U60A]	1.02
GUCCUCUUUCACGUGCACGUGAAAGAGAGAAGUGAACCAGAGAAACGCACGUUGUGGUAUAUUACCUGGUA [G17A A47G]	0.129
GUCCUCUUUCACGUGCACGUGAAAGAGAUAAGUGAACCAGAGAAACACACGUUGUGGUAUAUUACCUGGUA [G17A G29U]	0.113
GUCCUCUUUCACGUGCACGUGAAAGAGAAAAGUGAACCAGAGAAACACACGUUGUGGUAUAUUACCUGGUA [G17A G29A]	0.0893
GUCCUCUUUCACGUGCCCGUGAAAGAGAGAAGUGAACCAGAGAAACACACGUUGUGGUCUAUUACCUGGUA [G17C A59C]	0.162
GUCCUCUUUCACGUGCCCGUGAAAGAGAGAAGUGAACCAGAGAAACACACGUUGUGGUGUAUUACCUGGUA [G17C A59G]	0.171
GUCCUCUUUCACGUGCCCGUGAAAGAGAUAAGUGAACCAGAGAAACACACGUUGUGGUAUAUUACCUGGUA [G17C G29U]	0.134
GUCCUCUUUCACGUGCACGUGAAAGAGAGAAGUGAACCAGAGAAACACACGUUGUGGUAUAAUACCUGGUA [G17A U62A]	0.159
GUCCUCUUUCACGUGCCCGUGAAAGAGAGAAGUGAACCAGGGAAACACACGUUGUGGUAUAUUACCUGGUA [G17C A41G]	0.591
GUCCUCUUUCACGUGCCCGUGAAAGAGAGCAGUGAACCAGAGAAACACACGUUGUGGUAUAUUACCUGGUA [G17C A30C]	0.099
GUCCUCUUUCACGUGCCCGUGAAAGAGAGAAGUGAACCAGAGAAACACACGUUGUGGUAUUUUACCUGGUA [G17C A61U]	0.198
GUCCUCUUUCACGUGCACGUGAAAGAGAGAAGUGAACCAGAGAACCACACGUUGUGGUAUAUUACCUGGUA [G17A A45C]	0.0797
GUCCUCUUUCACGUGCCCGUGAAAGAGAGAAGUGAACCAGAGAAACACACGUUGUGGUAUAUUAACUGGUA [G17C C65A]	0.748
GUCCUCUUUCACGUGCACGUGAAAGAGAGAAGUGAACCAGAGAAACACACGUUAUGGUAUAUUACCUGGUA [G17A G54A]	0.543
GUCCUCUUUCACGUGCACGUGAAAGAGAGAAGUGAACCAGAGAAACACACGUUGUGGUAUAUUACCUGAUA [G17A G69A]	0.306
GUCCUCUUUCACGUGCCCGUGAAAGAGAGAAGUGAACGAGAGAAACACACGUUGUGGUAUAUUACCUGGUA [G17C C38G]	0.245
GUCCUCUUUCACGUGCCCGUGAAAGAGAGAAGUGAACUAGAGAAACACACGUUGUGGUAUAUUACCUGGUA [G17C C38U]	0.481
GUCCUCUUUCACGUGCACGUGAAAGAGAGAAGUGAACCAGAGAAACACACGUUGUGGUAUAUUACCUGGGA [G17A U70G]	0.918
GUCCUCUUUCACGUGCACGUGAAAGAGAGAAGUGAACCAGAGAAACACACGUUGUAGUAUAUUACCUGGUA [G17A G56A]	0.142

Variant	self-cleavage
GUCCUCUUUCACGUGCACGUGAAAGAGAGAAGUGAACCAGAGAAACACACGUUGUCGUAUAUUACCUGGUA [G17A G56C]	0.185
GUCCUCUUUCACGUGCACGUGAAAGAGAGAAGUGAACCAGAGAAACACACGUUGUUGUAUAUUACCUGGUA [G17A G56U]	0.137
GUCCUCUUUCACGUGCACGUGAAAGAGAGAAGUGAACCAGAGCAACACACGUUGUGGUAUAUUACCUGGUA [G17A A43C]	0.0401
GUCCUCUUUCACGUGCCCGUGAAAGAGAGAAGUGAACCAGAGAAACUCACGUUGUGGUAUAUUACCUGGUA [G17C A47U]	0.222
GUCCUCUUUCACGUGCCCGUGAAAGAGAGAAGUGAACCAGAGAAACCCACGUUGUGGUAUAUUACCUGGUA [G17C A47C]	0.187
GUCCUCUUUCACGUGCCCGUGAAAGAGAGAAGUGAACCAGAGAAACGCACGUUGUGGUAUAUUACCUGGUA [G17C A47G]	0.0817
GUCCUCUUUCACGUGCACGUGAAAGAGAGAAGUGAACCAAAGAAACACACGUUGUGGUAUAUUACCUGGUA [G17A G40A]	0.185
GUCCUCUUUCACGUGCACGUGAAAGAGAGAAGUGAACCAGAGAAACACUCGUUGUGGUAUAUUACCUGGUA [G17A A49U]	0.141
GUCCUCUUUCACGUGCACGUGAAAGAGAGAAGUGAACCAGAGAAACACACGUUGUGGUAUAUGACCUGGUA [G17A U63G]	0.29
GUCCUCUUUCACGUGCACGUGAAAGAGAGAAGUGAACCAGAGAAACACACGUUGUGGUAUAUCACCUGGUA [G17A U63C]	0.181
GUCCUCUUUCACGUGCACGUGAAAGAGAGAAGUGAACCAGACAAACACACGUUGUGGUAUAUUACCUGGUA [G17A G42C]	0.367
GUCCUCUUUCACGUGCCCGUGAAAGAGAGAAGUGAACCAGAGAACCACACGUUGUGGUAUAUUACCUGGUA [G17C A45C]	0.0898
GUCCUCUUUCACGUGCCCGUGAAAGAGAGAAGUGAACCAGAGAAACACACGUUGUGGUAUAUUACCUGGUA [G17C]	0.751
GUCCUCUUUCACGUGCCCGUGAAAGAGAGAAGUGAACCAGAGAAACACACGUUGUGGUAUAUUACCUGGUU [G17C A71U]	0.639
GUCCUCUUUCACGUGCACGUGAAAGAGAGAAGUGAACCAGAGAAACACACGUUGUGCUAUAUUACCUGGUA [G17A G57C]	0.146
GUCCUCUUUCACGUGCACGUGAAAGAGAGAAAUGAACCAGAGAAACACACGUUGUGGUAUAUUACCUGGUA [G17A G32A]	0.105
GUCCUCUUUCACGUGCCCGUGAAAGAGAGAAGUGAAGCAGAGAAACACACGUUGUGGUAUAUUACCUGGUA [G17C C37G]	0.362
GUCCUCUUUCACGUGCCCGUGAAAGCGAGAAGUGAACCAGAGAAACACACGUUGUGGUAUAUUACCUGGUA [G17C A26C]	0.655
GUCCUCUUUCACGUGCACGUGAAAGAGAGAAGUGAACCAGAGAAACACACGUUGUGGUAUAUUACCCGGUA [G17A U67C]	0.163
GUCCUCUUUCACGUGCACGUGAAAGAGAGAAGUGAACCAGAGAAACACACGUUGCGGUAUAUUACCUGGUA [G17A U55C]	0.354
GUCCUCUUUCACGUGCACGUGAAAGAGAGAAGUGAACCAGAGAAACACACGUUGAGGUAUAUUACCUGGUA [G17A U55A]	0.0892
GUCCUCUUUCACGUGCACGUGAAAGAGAGAAGCGAACCAGAGAAACACACGUUGUGGUAUAUUACCUGGUA [G17A U33C]	0.113
GUCCUCUUUCACGUGCACGUGAAAGAGAGAAGUGAACCAGAGAAACAGACGUUGUGGUAUAUUACCUGGUA [G17A C48G]	0.102
GUCCUCUUUCACGUGCACGUGAAAGAGAGAAGUGAACCAGAGAAACAAACGUUGUGGUAUAUUACCUGGUA [G17A C48A]	0.145
